First the molecules themselves.
B1: CPEB3 Ribozyme (parent)
chain: GGGGGCCACAGCAGAAGCGUUCACGUCGCGGCCCCUGUCAGAUUCUGGUGAAUCUGCGAAUUCUGCUGU

The data set covers variants of B1. Put plainly: self-cleavage, relative activity (ratio to wild type); higher = more cleavage; co-transcriptional.
A10U U61C: the self-cleavage came out at 0.781.

Consider G11C U26C, for which the self-cleavage stood at 0.729.

With G11C U26G, the self-cleavage came to 0.417.

Take G11C U26A: the self-cleavage is 0.387.

With G11C U44A, the self-cleavage came to 0.636.

As to G11U A23U, the self-cleavage is 0.945.

Turning to G11U A23C, the self-cleavage came to 0.685.

Take G11U A23G: the self-cleavage was 0.651.

With G11A U38G, the self-cleavage came to 0.142.

For the variant G11A U38C, the self-cleavage was 0.733.

For G11A U38A, the self-cleavage was 0.684.

As to G11C A16G, the self-cleavage stood at 0.471.

For the variant G11C A60U, the self-cleavage came out at 0.243.

Regarding G11C A60G, the self-cleavage is 0.434.

Take G11A G48U: the self-cleavage was 0.885.

As for G11A G48C, the self-cleavage was 0.951.

On to G11C A42U, for which the self-cleavage is 0.41.

Consider G11C A42G, for which the self-cleavage is 0.51.

As for G11A C29G, the self-cleavage was 0.148.

For the variant G11A C29A, the self-cleavage came to 0.26.

Consider G11A C29U, for which the self-cleavage was determined as 0.0741.

As for G11U A52G, the self-cleavage is 0.901.

Consider G11C C22U, for which the self-cleavage turned out to be 0.143.

As to G11C C22A, the self-cleavage was found to be 0.177.

Regarding G11U C32U, the self-cleavage came out at 0.854.

For G11U C32G, the self-cleavage is 0.295.

On to G11A U55A, for which the self-cleavage turned out to be 0.348.

G11A U55G: the self-cleavage is 0.317.

Take G11A C57A: the self-cleavage amounted to 0.287.

For the variant G11A C57U, the self-cleavage is 0.332.

Take G11A G50C: the self-cleavage stood at 0.715.

As for G11A G50U, the self-cleavage amounted to 0.927.

Turning to A10U G48U, the self-cleavage stood at 1.

Regarding G11A U44G, the self-cleavage was 0.76.

With G11A U44C, the self-cleavage turned out to be 0.528.

Turning to G11C C32A, the self-cleavage came to 0.601.

Turning to G11C C32U, the self-cleavage was found to be 0.82.

As to G11C C32G, the self-cleavage was found to be 0.17.

In the case of G11A C45G, the self-cleavage turned out to be 0.859.

G11A A40C: the self-cleavage was determined as 0.14.

As for G11A C66U, the self-cleavage is 0.967.

With G11A C18A, the self-cleavage turned out to be 0.107.

With G11A C18U, the self-cleavage worked out at 0.278.

Consider G11A C18G, for which the self-cleavage amounted to 0.106.

As for G11C A15C, the self-cleavage was found to be 0.497.

Take G11C A15U: the self-cleavage worked out at 0.188.

As for A10U G68C, the self-cleavage was found to be 1.05.

For G11C C63G, the self-cleavage turned out to be 0.299.

On to G11C C63A, for which the self-cleavage was 0.275.

For G11A A51U, the self-cleavage amounted to 0.847.

G11A A51G: the self-cleavage worked out at 0.865.

For the variant G11A C22U, the self-cleavage was found to be 0.191.

As to G11A C22A, the self-cleavage worked out at 0.127.

Consider G11U C33G, for which the self-cleavage came to 0.619.

As to G11U C33A, the self-cleavage stood at 0.765.

G11A C33G: the self-cleavage is 0.733.

Turning to G11A C33U, the self-cleavage was found to be 0.908.

G11C C57U: the self-cleavage stood at 0.238.

For the variant G11C C57G, the self-cleavage amounted to 0.284.

With A10U U53G, the self-cleavage was 0.902.

For A10U U53A, the self-cleavage was 0.981.

Regarding G11A U61A, the self-cleavage stood at 0.452.

On to G11A U61C, for which the self-cleavage was determined as 0.268.

For G11A U61G, the self-cleavage turned out to be 0.392.

Take G11U A16C: the self-cleavage worked out at 0.101.

Consider G11U A16U, for which the self-cleavage came to 0.48.

Regarding G11A U69G, the self-cleavage is 1.01.

Turning to G11A U69A, the self-cleavage is 0.973.

As for G11A C24U, the self-cleavage worked out at 0.259.

G11A C24A: the self-cleavage turned out to be 0.345.

Consider G11A C24G, for which the self-cleavage worked out at 0.16.

As for G11C, the self-cleavage came to 0.872.

For the variant G11U, the self-cleavage was found to be 0.905.

As for G11A, the self-cleavage was 0.932.

For G11C U38A, the self-cleavage amounted to 0.729.

Consider G11C U38G, for which the self-cleavage came to 0.113.

Regarding A10U G65C, the self-cleavage was 0.627.

G11U C39U: the self-cleavage turned out to be 0.527.

For the variant G11U C39A, the self-cleavage turned out to be 0.36.

Regarding G11U C39G, the self-cleavage stood at 0.536.

As to G11C C24U, the self-cleavage worked out at 0.334.

G11C C24A: the self-cleavage was found to be 0.321.

Regarding A10U G41U, the self-cleavage turned out to be 0.86.

In the case of A10U G41A, the self-cleavage came out at 0.844.

As to G11C A52U, the self-cleavage was determined as 0.628.

Turning to G11C A52G, the self-cleavage stood at 0.838.

With G11C A52C, the self-cleavage was 0.551.

With G11C C29G, the self-cleavage stood at 0.139.

For G11C C29U, the self-cleavage was found to be 0.12.

Take G11C C29A: the self-cleavage turned out to be 0.181.

Consider G11C C34G, for which the self-cleavage was determined as 0.578.

Take G11C C34A: the self-cleavage was found to be 0.615.

Turning to G11C C34U, the self-cleavage stood at 0.901.

G11C G65U: the self-cleavage is 0.53.

On to G11C G65C, for which the self-cleavage amounted to 0.409.

Take G11C C39G: the self-cleavage is 0.408.

Consider G11C C39A, for which the self-cleavage came to 0.257.

With G11A G65U, the self-cleavage is 0.781.

For the variant G11A G65A, the self-cleavage was found to be 0.759.

Regarding G11U C18A, the self-cleavage was 0.0522.

Take G11U C18G: the self-cleavage worked out at 0.0807.

As to G11U C18U, the self-cleavage turned out to be 0.372.

Regarding G11A C35U, the self-cleavage was 0.861.

G11A C35A: the self-cleavage was 0.242.

As for A10U U62G, the self-cleavage came to 0.896.

On to A10U G56C, for which the self-cleavage worked out at 0.84.

For G11C G31A, the self-cleavage came out at 0.693.

With A10U U44C, the self-cleavage was determined as 0.949.

As for A10U U44G, the self-cleavage amounted to 0.928.

For G11C G58A, the self-cleavage came to 0.82.

Regarding G11C U46A, the self-cleavage came out at 0.866.

Turning to G11C U46G, the self-cleavage is 0.849.

As for G11C U46C, the self-cleavage was determined as 0.787.

Turning to G11A C54A, the self-cleavage worked out at 0.368.

Turning to G11A C54G, the self-cleavage was 0.426.

For the variant G11A C54U, the self-cleavage came to 0.886.

Take G11A U20C: the self-cleavage is 0.213.

For the variant G11A U20G, the self-cleavage turned out to be 0.154.

In the case of G11C A59U, the self-cleavage came to 0.36.

Turning to G11C A59C, the self-cleavage was determined as 0.324.

Consider G11A G17A, for which the self-cleavage was 0.119.

As for G11A G17U, the self-cleavage was determined as 0.142.

Turning to G11A G17C, the self-cleavage was 0.122.

On to G11U G14C, for which the self-cleavage is 0.161.

On to G11U C29A, for which the self-cleavage stood at 0.202.

Consider G11U C29U, for which the self-cleavage worked out at 0.142.

Take G11U C29G: the self-cleavage amounted to 0.149.

Consider G11C U20A, for which the self-cleavage was 0.115.

In the case of G11C U20C, the self-cleavage was determined as 0.158.

On to G11C U55C, for which the self-cleavage came to 0.243.

Consider G11C A51G, for which the self-cleavage was found to be 0.73.

Turning to G11C A51U, the self-cleavage turned out to be 0.621.

Turning to G11C A51C, the self-cleavage came out at 0.624.

For G11A A52C, the self-cleavage came to 0.865.

Turning to G11A A52U, the self-cleavage was found to be 0.837.

Consider G11A C39G, for which the self-cleavage came to 0.646.

As to G11A C39A, the self-cleavage worked out at 0.405.

For G11A C39U, the self-cleavage came out at 0.609.

G11C C33G: the self-cleavage was determined as 0.507.

For the variant G11U C45U, the self-cleavage is 0.893.

For G11U C45A, the self-cleavage was determined as 0.732.

On to G11A U36C, for which the self-cleavage is 0.727.

Regarding G11A U36A, the self-cleavage is 0.211.

Turning to G11A U36G, the self-cleavage is 0.131.

Regarding G11U A13G, the self-cleavage came to 0.527.

On to G11U A13C, for which the self-cleavage was determined as 0.146.

For the variant G11U A13U, the self-cleavage stood at 0.184.

As for G11U C57U, the self-cleavage turned out to be 0.215.

Regarding G11U C57G, the self-cleavage amounted to 0.204.

Regarding G11U C57A, the self-cleavage was found to be 0.31.

On to G11C A40U, for which the self-cleavage was 0.26.

Consider G11C A40C, for which the self-cleavage was 0.179.

For G11C A40G, the self-cleavage was determined as 0.643.

For G11C C35G, the self-cleavage was 0.209.

With G11A U62A, the self-cleavage was determined as 0.537.

In the case of G11A U62C, the self-cleavage was determined as 0.391.

A10U U20C: the self-cleavage was 0.232.

As to A10U U20G, the self-cleavage was 0.19.

With A10U U20A, the self-cleavage stood at 0.122.

Consider G11A G68C, for which the self-cleavage worked out at 0.947.

G11A G68A: the self-cleavage stood at 0.956.

On to G11A G68U, for which the self-cleavage was determined as 0.915.

On to G11U C66A, for which the self-cleavage worked out at 0.918.

As to G11U C66U, the self-cleavage stood at 0.955.

On to G11U C66G, for which the self-cleavage was 0.949.

G11C G68A: the self-cleavage turned out to be 0.907.

With G11C G68C, the self-cleavage stood at 0.823.
